The text below walks through data of publication doi:10.1101/2020.09.15.299115.

The target of assay [1] is mCherry-FKBP-Ubc9 (UniProt P63279).
Assay [2] has the same target. Description: partitioning into condensates.

For the molecule “FKBP-EGFP-RanGAP* (RanGAP C-terminal domain 398-587, F562A) (from UniProt P46060 398-587) (domain or fragment)”, the KM of SUMOylation of RanGAP* (no scaffolds) in assay [1] turned out to be 70 µM.

B1: E1-EGFP (SAE1/2 heterodimer) (complex)
chain 1: MVEKEEAGGGISEEEAAQYDRQIRLWGLEAQKRLRASRVLLVGLKGLGAEIAKNLILAGVKGLTMLDHEQVTPEDPGAQFLIRTGSVGRNRAEASLERAQNLNPMVDVKVDTEDIEKKPESFFTQFDAVCLTCCSRDVIVKVDQICHKNSIKFFTGDVFGYHGYTFANLGEHEFVEEKTKVAKVSQGVEDGPDTKRAKLDSSETTMVKKKVVFCPVKEALEVDWSSEKAKAALKRTTSDYFLLQVLLKFRTDKGRDPSSDTYEEDSELLLQIRNDVLDSLGISPDLLPEDFVRYCFSEMAPVCAVVGGILAQEIVKALSQRDPPHNNFFFFDGMKGNGIVECLGPK
chain 2: MALSRGLPRELAEAVAGGRVLVVGAGGIGCELLKNLVLTGFSHIDLIDLDTIDVSNLNRQFLFQKKHVGRSKAQVAKESVLQFYPKANIVAYHDSIMNPDYNVEFFRQFILVMNALDNRAARNHVNRMCLAADVPLIESGTAGYLGQVTTIKKGVTECYECHPKPTQRTFPGCTIRNTPSEPIHCIVWAKYLFNQLFGEEDADQEVSPDRADPEAAWEPTEAEARARASNEDGDIKRISTKEWAKSTGYDPVKLFTKLFKDDIRYLLTMDKLWRKRKPPVPLDWAEVQSQGEETNASDQQNEPQLGLKDQQVLDVKSYARLFSKSIETLRVHLAEKGDGAELIWDKDDPSAMDFVTSAANLRMHIFSMNMKSRFDIKSMAGNIIPAIATTNAVIAGLIVLEGLKILSGKIDQCRTIFLNKQPNPRKKLLVPCALDPPNPNCYVCASKPEVTVRLNVHKVTVLTLQDKIVKEKFAMVAPDVQIEDGKGTILISSEEGETEANNHKKLSEFGIRNGSRLQADDFLQDYTLLINILHSEDLGKDVEFEVVGDAPEKVGPKQAEDAAKSITNGSDDGAQPSTSTAQEQDDVLIVDSDEEDSSNNADVSEEERSRKRKLDEKENLSAKRSRIEQKEELDDVIALD
Consider B1, for which, in assay [2], the fold concentration in droplets was 1.9 fold.
